The values below come from US20150274831A1.

Where only a bound is given, the exact number is not on record here.

Usually % inhibition stands for the change of the read-out against control, counted positive when it falls. The low end stands for a response near the control, the high end for a response far below the control.

Common to all, as to assay: cell-based or functional assay
Experiment [1] has as its target CSF-1R on cynomolgous monocytes (native receptor of CD14-enriched peripheral blood monocytes) (cynomolgous).
The target in experiment [2] is human mutant CSF-1R L301S Y969F, full-length, on cells (human) (UniProt P07333).
Experiment [3] concerns the target human wildtype CSF-1R (wt CSF-1R), full-length, on cells (human) (UniProt P07333).

As to “Anti CSF-1R SC 2-4A5 (Santa Cruz Biotechnology, US) (antibody)”, in experiment [1], the % inhibition (of survival) = (100% - % survival) (CellTiterGlo; cynomolgous monocytes with 150 ng/ml huCSF-1; 5 µg/ml antibody) amounted to 69% and the % survival (CellTiterGlo; cynomolgous monocytes with 150 ng/ml huCSF-1; 5 µg/ml antibody) is 31%. In experiment [2], this substance returned a Mutant CSF-1R IC30 [µg/ml] (cell viability, 3D culture, CellTiterGlo) of 2.56 µg/mL and a Mutant CSF-1R IC50 [µg/ml] (cell viability, 3D culture, CellTiterGlo) of 10 µg/mL. Besides, in experiment [3], the IC50 CSF-1R Phosphorylation is 1.01 mg/L; the wtCSF-1R IC30 [µg/ml] (cell viability, 3D culture, CellTiterGlo) stood at 16.6 µg/mL; the wtCSF-1R IC50 [µg/ml] (cell viability, 3D culture, CellTiterGlo) came to 10 µg/mL.

In experiment [2], “goat polyclonal anti-CSF-1R antibody ab10676 (abcam)” gave a % inhibition at 20 µg/ml (mutant CSF-1R cells) of 0% and a Mutant CSF-1R IC30 [µg/ml] (cell viability, 3D culture, CellTiterGlo) greater than 20 µg/mL. This substance also displayed a wtCSF-1R IC30 [µg/ml] (cell viability, 3D culture, CellTiterGlo) in experiment [3] of 14.2 µg/mL.
